Assay results as given in patent US20260098075A1.
Substitutions are numbered along the chain they refer to. Values belong to the binder of their own block, whether it stands above or below them.

Target: human ROR1 (tyrosine-protein kinase transmembrane receptor ROR1) (human), Q01973
Assay: cell-based or functional assay

Chain of human ROR1 (tyrosine-protein kinase transmembrane receptor ROR1) (human), Q01973 (Q01973 30-937): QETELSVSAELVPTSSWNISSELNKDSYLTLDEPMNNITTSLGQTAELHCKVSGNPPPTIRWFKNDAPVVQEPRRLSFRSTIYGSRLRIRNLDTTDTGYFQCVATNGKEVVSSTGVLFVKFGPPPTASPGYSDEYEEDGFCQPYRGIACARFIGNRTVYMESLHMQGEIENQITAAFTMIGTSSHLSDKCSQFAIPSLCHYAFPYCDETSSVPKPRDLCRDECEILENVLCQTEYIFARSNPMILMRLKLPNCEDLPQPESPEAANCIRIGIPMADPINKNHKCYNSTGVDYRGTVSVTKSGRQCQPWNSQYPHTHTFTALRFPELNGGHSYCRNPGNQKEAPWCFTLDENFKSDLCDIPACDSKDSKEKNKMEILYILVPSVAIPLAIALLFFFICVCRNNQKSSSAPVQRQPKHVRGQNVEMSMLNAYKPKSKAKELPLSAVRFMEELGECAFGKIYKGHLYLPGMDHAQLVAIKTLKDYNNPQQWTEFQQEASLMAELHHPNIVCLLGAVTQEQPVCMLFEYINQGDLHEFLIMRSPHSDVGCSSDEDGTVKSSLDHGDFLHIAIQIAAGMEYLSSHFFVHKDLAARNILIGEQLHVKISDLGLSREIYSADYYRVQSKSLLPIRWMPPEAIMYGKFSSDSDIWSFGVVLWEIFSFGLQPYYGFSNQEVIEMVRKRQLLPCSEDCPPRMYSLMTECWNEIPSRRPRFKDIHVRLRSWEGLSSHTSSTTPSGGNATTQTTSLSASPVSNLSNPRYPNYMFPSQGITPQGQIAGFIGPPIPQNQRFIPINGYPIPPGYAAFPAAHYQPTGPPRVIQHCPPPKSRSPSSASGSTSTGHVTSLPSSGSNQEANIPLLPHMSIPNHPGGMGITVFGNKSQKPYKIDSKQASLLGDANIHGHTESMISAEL

A549 IFNg, donor 2735: 8940
A549 IFNg, donor 5018: 4350
A549 IL-2, donor 2735: 4
A549 IL-2, donor 5018: 0
A549 normalized AUC, donor 2735: 67.6
A549 normalized AUC, donor 5018: 80.9
H1975 IFNg, donor 2735: 15700
H1975 IFNg, donor 5018: 4850
H1975 IL-2, donor 2735: 10
H1975 IL-2, donor 5018: 0
H1975 normalized AUC, donor 2735: 67.6
H1975 normalized AUC, donor 5018: 68.8
B1: R12 CAR with Spacer 1 (ROR1-specific R12 scFv, Gly-Ser linker, Spacer 1, CD28-derived transmembrane domain, 4-1BB costimulatory domain, CD3 zeta signaling … (protein)
chain: QEQLVESGGRLVTPGGSLTLSCKASGFDFSAYYMSWVRQAPGKGLEWIATIYPSSGKTYYATWVNGRFTISSDNAQNTVDLQMNSLTAADRATYFCARDSYADDGALFNIWGPGTLVTISSGGGGSGGGGSGGGGSELVLTQSPSVSAALGSPAKITCTLSSAHKTDTIDWYQQLQGEAPRYLMQVQSDGSYTKRPGVPDRFSGSSSGADRYLIIPSVQADDEADYYCGADYIGGYVFGGGTQLTVTGGGGSGKPCPPCKCPMFWVLVVVGGVLACYSLLVTVAFIIFWVKRGRKKLLYIFKQPFMRPVQTTQEEDGCSCRFPEEEEGGCELRVKFSRSADAPAYQQGQNQLYNELNLGRREEYDVLDKRRGRDPEMGGKPRRKNPQEGLYNELQKDKMAEAYSEIGMKGERRRGKGHDGLYQGLSTATKDTYDALHMQALPPR

A549 IFNg, donor 2735: 13800
A549 IFNg, donor 5018: 7610
A549 IL-2, donor 2735: 8
A549 IL-2, donor 5018: 9
A549 normalized AUC, donor 2735: 64
A549 normalized AUC, donor 5018: 81.2
H1975 IFNg, donor 2735: 16900
H1975 IFNg, donor 5018: 4320
H1975 IL-2, donor 2735: 17
H1975 IL-2, donor 5018: 10
H1975 normalized AUC, donor 2735: 63
H1975 normalized AUC, donor 5018: 75
B2: R12 CAR with Spacer 15 (protein)
chain: QEQLVESGGRLVTPGGSLTLSCKASGFDFSAYYMSWVRQAPGKGLEWIATIYPSSGKTYYATWVNGRFTISSDNAQNTVDLQMNSLTAADRATYFCARDSYADDGALFNIWGPGTLVTISSGGGGSGGGGSGGGGSELVLTQSPSVSAALGSPAKITCTLSSAHKTDTIDWYQQLQGEAPRYLMQVQSDGSYTKRPGVPDRFSGSSSGADRYLIIPSVQADDEADYYCGADYIGGYVFGGGTQLTVTGGGGSGPPKPKDTMFWVLVVVGGVLACYSLLVTVAFIIFWVKRGRKKLLYIFKQPFMRPVQTTQEEDGCSCRFPEEEEGGCELRVKFSRSADAPAYQQGQNQLYNELNLGRREEYDVLDKRRGRDPEMGGKPRRKNPQEGLYNELQKDKMAEAYSEIGMKGERRRGKGHDGLYQGLSTATKDTYDALHMQALPPR

A549 IFNg, donor 2735: 14100
A549 IFNg, donor 5018: 5000
A549 IL-2, donor 2735: 7
A549 IL-2, donor 5018: 8
A549 normalized AUC, donor 2735: 66.3
A549 normalized AUC, donor 5018: 85
H1975 IFNg, donor 2735: 23200
H1975 IFNg, donor 5018: 2650
H1975 IL-2, donor 2735: 26
H1975 IL-2, donor 5018: 7
H1975 normalized AUC, donor 2735: 61.5
H1975 normalized AUC, donor 5018: 77.4
B3: R12 CAR with Spacer 21 (protein)
chain: B2 chain with P254V, K256C, K258V, D259P, T260P

A549 IFNg, donor 2089: 55400
A549 IFNg, donor 5018: 41300
A549 IL-2, donor 2089: 1
A549 IL-2, donor 5018: 3
A549 normalized AUC, donor 2089: 38
A549 normalized AUC, donor 5018: 58.9
H1975 IFNg, donor 2089: 78000
H1975 IFNg, donor 5018: 61900
H1975 IL-2, donor 2089: 2
H1975 IL-2, donor 5018: 13
H1975 normalized AUC, donor 2089: 39.4
H1975 normalized AUC, donor 5018: 43.2
B4: 2A2 CAR against ROR1 with Spacer 21 (protein)
chain: QVQLQQSGAELVRPGASVTLSCKASGYTFSDYEMHWVIQTPVHGLEWIGAIDPETGGTAYNQKFKGKAILTADKSSSTAYMELRSLTSEDSAVYYCTGYYDYDSFTYWGQGTLVTVSAGGGGSGGGGSGGGGSDIVMTQSQKIMSTTVGDRVSITCKASQNVDAAVAWYQQKPGQSPKLLIYSASNRYTGVPDRFTGSGSGTDFTLTISNMQSEDLADYFCQQYDIYPYTFGGGTKLEIKTGGGGSGVPCPVPPMFWVLVVVGGVLACYSLLVTVAFIIFWVKRGRKKLLYIFKQPFMRPVQTTQEEDGCSCRFPEEEEGGCELRVKFSRSADAPAYQQGQNQLYNELNLGRREEYDVLDKRRGRDPEMGGKPRRKNPQEGLYNELQKDKMAEAYSEIGMKGERRRGKGHDGLYQGLSTATKDTYDALHMQALPPR

A549 IFNg, donor 5018: 46300
A549 IFNg, donor 7811: 86700
A549 IL-2, donor 5018: 10
A549 IL-2, donor 7811: 89
A549 normalized AUC, donor 5018: 58.4
A549 normalized AUC, donor 7811: 51.4
H1975 IFNg, donor 5018: 7170
H1975 IFNg, donor 7811: 11900
H1975 IL-2, donor 5018: 1
H1975 IL-2, donor 7811: 2
H1975 normalized AUC, donor 5018: 114
H1975 normalized AUC, donor 7811: 96.5
B5: R11 CAR against ROR1 with Spacer 6 (protein)
chain: QSVKESEGDLVTPAGNLTLTCTASGSDINDYPISWVRQAPGKGLEWIGFINSGGSTWYASWVKGRFTISRTSTTVDLKMTSLTTDDTATYFCARGYSTYYGDFNIWGPGTLVTISSGGGGSGGGGSGGGGSELVMTQTPSSTSGAVGGTVTINCQASQSIDSNLAWFQQKPGQPPTLLIYRASNLASGVPSRFSGSRSGTEYTLTISGVQREDAATYYCLGGVGNVSYRTSFGGGTEVVVKTGGGGSGEPKSCDTPPPCPRCPEPKSCDTPPPCPRCPEPKSCDTPPPCPRCPAPMFWVLVVVGGVLACYSLLVTVAFIIFWVKRGRKKLLYIFKQPFMRPVQTTQEEDGCSCRFPEEEEGGCELRVKFSRSADAPAYQQGQNQLYNELNLGRREEYDVLDKRRGRDPEMGGKPRRKNPQEGLYNELQKDKMAEAYSEIGMKGERRRGKGHDGLYQGLSTATKDTYDALHMQALPPR

A549 IFNg, donor 2089: 46600
A549 IFNg, donor 5018: 38900
A549 IL-2, donor 2089: 1
A549 IL-2, donor 5018: 3
A549 normalized AUC, donor 2089: 42
A549 normalized AUC, donor 5018: 61
H1975 IFNg, donor 2089: 67100
H1975 IFNg, donor 5018: 54300
H1975 IL-2, donor 2089: 1
H1975 IL-2, donor 5018: 14
H1975 normalized AUC, donor 2089: 37.9
H1975 normalized AUC, donor 5018: 43.2
B6: 2A2 CAR against ROR1 with Spacer 13 (protein)
chain: QVQLQQSGAELVRPGASVTLSCKASGYTFSDYEMHWVIQTPVHGLEWIGAIDPETGGTAYNQKFKGKAILTADKSSSTAYMELRSLTSEDSAVYYCTGYYDYDSFTYWGQGTLVTVSAGGGGSGGGGSGGGGSDIVMTQSQKIMSTTVGDRVSITCKASQNVDAAVAWYQQKPGQSPKLLIYSASNRYTGVPDRFTGSGSGTDFTLTISNMQSEDLADYFCQQYDIYPYTFGGGTKLEIKTGGGGSGPCPRCPAPMFWVLVVVGGVLACYSLLVTVAFIIFWVKRGRKKLLYIFKQPFMRPVQTTQEEDGCSCRFPEEEEGGCELRVKFSRSADAPAYQQGQNQLYNELNLGRREEYDVLDKRRGRDPEMGGKPRRKNPQEGLYNELQKDKMAEAYSEIGMKGERRRGKGHDGLYQGLSTATKDTYDALHMQALPPR

A549 IFNg, donor 2089: 49900
A549 IFNg, donor 5018: 34200
A549 IL-2, donor 2089: 1
A549 IL-2, donor 5018: 2
A549 normalized AUC, donor 2089: 43.6
A549 normalized AUC, donor 5018: 61
H1975 IFNg, donor 2089: 78300
H1975 IFNg, donor 5018: 58100
H1975 IL-2, donor 2089: 1
H1975 IL-2, donor 5018: 8
H1975 normalized AUC, donor 2089: 39.5
H1975 normalized AUC, donor 5018: 44.3
B7: 2A2 CAR against ROR1 with Spacer 28 (protein)
chain: QVQLQQSGAELVRPGASVTLSCKASGYTFSDYEMHWVIQTPVHGLEWIGAIDPETGGTAYNQKFKGKAILTADKSSSTAYMELRSLTSEDSAVYYCTGYYDYDSFTYWGQGTLVTVSAGGGGSGGGGSGGGGSDIVMTQSQKIMSTTVGDRVSITCKASQNVDAAVAWYQQKPGQSPKLLIYSASNRYTGVPDRFTGSGSGTDFTLTISNMQSEDLADYFCQQYDIYPYTFGGGTKLEIKTGGGGSGSVCSRDFTPPMFWVLVVVGGVLACYSLLVTVAFIIFWVKRGRKKLLYIFKQPFMRPVQTTQEEDGCSCRFPEEEEGGCELRVKFSRSADAPAYQQGQNQLYNELNLGRREEYDVLDKRRGRDPEMGGKPRRKNPQEGLYNELQKDKMAEAYSEIGMKGERRRGKGHDGLYQGLSTATKDTYDALHMQALPPR

A549 IFNg, donor 5018: 60900
A549 IFNg, donor 7811: 83600
A549 IL-2, donor 5018: 10
A549 IL-2, donor 7811: 87
A549 normalized AUC, donor 5018: 55.8
A549 normalized AUC, donor 7811: 48.8
H1975 IFNg, donor 5018: 17300
H1975 IFNg, donor 7811: 32400
H1975 IL-2, donor 5018: 2
H1975 IL-2, donor 7811: 16
H1975 normalized AUC, donor 5018: 86.7
H1975 normalized AUC, donor 7811: 69.6
B8: R11 CAR against ROR1 with Spacer 5 (protein)
chain: QSVKESEGDLVTPAGNLTLTCTASGSDINDYPISWVRQAPGKGLEWIGFINSGGSTWYASWVKGRFTISRTSTTVDLKMTSLTTDDTATYFCARGYSTYYGDFNIWGPGTLVTISSGGGGSGGGGSGGGGSELVMTQTPSSTSGAVGGTVTINCQASQSIDSNLAWFQQKPGQPPTLLIYRASNLASGVPSRFSGSRSGTEYTLTISGVQREDAATYYCLGGVGNVSYRTSFGGGTEVVVKTGGGGSGCPRCPEPKSCDTPPPCPRCPEPKSCDTPPPCPRCPEPKSCDTPPPCPRCPAPMFWVLVVVGGVLACYSLLVTVAFIIFWVKRGRKKLLYIFKQPFMRPVQTTQEEDGCSCRFPEEEEGGCELRVKFSRSADAPAYQQGQNQLYNELNLGRREEYDVLDKRRGRDPEMGGKPRRKNPQEGLYNELQKDKMAEAYSEIGMKGERRRGKGHDGLYQGLSTATKDTYDALHMQALPPR

A549 IFNg, donor 5018: 37000
A549 IFNg, donor 7811: 46200
A549 IL-2, donor 5018: 5
A549 IL-2, donor 7811: 26
A549 normalized AUC, donor 5018: 59.1
A549 normalized AUC, donor 7811: 54.6
H1975 IFNg, donor 5018: 9130
H1975 IFNg, donor 7811: 15900
H1975 IL-2, donor 5018: 1
H1975 IL-2, donor 7811: 4
H1975 normalized AUC, donor 5018: 94.5
H1975 normalized AUC, donor 7811: 83.1
B9: R11 CAR against ROR1 with Spacer 4 (protein)
chain: QSVKESEGDLVTPAGNLTLTCTASGSDINDYPISWVRQAPGKGLEWIGFINSGGSTWYASWVKGRFTISRTSTTVDLKMTSLTTDDTATYFCARGYSTYYGDFNIWGPGTLVTISSGGGGSGGGGSGGGGSELVMTQTPSSTSGAVGGTVTINCQASQSIDSNLAWFQQKPGQPPTLLIYRASNLASGVPSRFSGSRSGTEYTLTISGVQREDAATYYCLGGVGNVSYRTSFGGGTEVVVKTGGGGSGELKTPLGDTTHTCPRCPEPKSCDTPPPCPRCPEPKSCDTPPPCPRCPEPKSCDTPPPCPRCPAPMFWVLVVVGGVLACYSLLVTVAFIIFWVKRGRKKLLYIFKQPFMRPVQTTQEEDGCSCRFPEEEEGGCELRVKFSRSADAPAYQQGQNQLYNELNLGRREEYDVLDKRRGRDPEMGGKPRRKNPQEGLYNELQKDKMAEAYSEIGMKGERRRGKGHDGLYQGLSTATKDTYDALHMQALPPR
